Source: IntAct's records for PubMed 11494128

B1: Ephrin type-B receptor 2 (Gallus gallus (Chicken)), P28693 (parent)
chain: MGPLWFCCLPLALLPLLAAVEETLMDSTTATAELGWMVHPPSGWEEVSGYDENMNTIRTYQVCNVFESSQNNWLRTKYIRRRGAHRIHVEMKFSVRDCSSIPNVPGSCKETFNLYYYESDFDSATKTFPNWMENPWMKVDTIAADESFSQVDLGGRVMKINTEVRSFGPVSKNGFYLAFQDYGGCMSLIAVRVFYRKCPRVIQNGAVFQETLSGAESTSLVAARGTCISNAEEVDVPIKLYCNGDGEWLVPIGRCMCRPGYESVENGTVCRGCPSGTFKASQGDEGCVHCPINSRTTSEGATNCVCRNGYYRADADPVDMPCTTIPSAPQAVISSVNETSLMLEWTPPRDSGGREDLVYNIICKSCGSGRGACTRCGDNVQFAPRQLGLTEPRIYISDLLAHTQYTFEIQAVNGVTDQSPFSPQFASVNITTNQAAPSAVSIMHQVSRTVDSITLSWSQPDQPNGVILDYELQYYEKNLSELNSTAVKSPTNTVTVQNLKAGTIYVFQVRARTVAGYGRYSGKMYFQTMTEAEYQTSVQEKLPLIIGSSAAGLVFLIAVVVIIIVCNRRRGFERADSEYTDKLQHYTSGHSTYRGPPPGLGVRLFVMTPGMKIYIDPFTYEDPNEAVREFAKEIDISCVKIEQVIGAGEFGEVCSGHLKLPGKREIFVAIKTLKSGYTEKQRRDFLSEASIMGQFDHPNVIHLEGVVTKSSPVMIITEFMENGSLDSFLRQNDGQFTVIQLVGMLRGIAAGMKYLADMNYVHRDLAARNILVNSNLVCKVSDFGLSRFLEDDTSDPTYTSALGGKIPIRWTAPEAIQYRKFTSASDVWSYGIVMWEVMSYGERPYWDMTNQDVINAIEQDYRLPPPMDCPNALHQLMLDCWQKDRNHRPKFGQIVNTLDKMIRNPNSLKAMAPLSSGVNLPLLDRTIPDYTSFNTVDEWLDAIKMSQYKESFASAGFTTFDIVSQMTVEDILRVGVTLAGHQKKILNSIQVMRAQMNQIQSVEV

Variants of: B1
Conditions: with abl1_mouse Abl1, P00520
Sequence of abl1_mouse Abl1, P00520 (P00520 whole entry): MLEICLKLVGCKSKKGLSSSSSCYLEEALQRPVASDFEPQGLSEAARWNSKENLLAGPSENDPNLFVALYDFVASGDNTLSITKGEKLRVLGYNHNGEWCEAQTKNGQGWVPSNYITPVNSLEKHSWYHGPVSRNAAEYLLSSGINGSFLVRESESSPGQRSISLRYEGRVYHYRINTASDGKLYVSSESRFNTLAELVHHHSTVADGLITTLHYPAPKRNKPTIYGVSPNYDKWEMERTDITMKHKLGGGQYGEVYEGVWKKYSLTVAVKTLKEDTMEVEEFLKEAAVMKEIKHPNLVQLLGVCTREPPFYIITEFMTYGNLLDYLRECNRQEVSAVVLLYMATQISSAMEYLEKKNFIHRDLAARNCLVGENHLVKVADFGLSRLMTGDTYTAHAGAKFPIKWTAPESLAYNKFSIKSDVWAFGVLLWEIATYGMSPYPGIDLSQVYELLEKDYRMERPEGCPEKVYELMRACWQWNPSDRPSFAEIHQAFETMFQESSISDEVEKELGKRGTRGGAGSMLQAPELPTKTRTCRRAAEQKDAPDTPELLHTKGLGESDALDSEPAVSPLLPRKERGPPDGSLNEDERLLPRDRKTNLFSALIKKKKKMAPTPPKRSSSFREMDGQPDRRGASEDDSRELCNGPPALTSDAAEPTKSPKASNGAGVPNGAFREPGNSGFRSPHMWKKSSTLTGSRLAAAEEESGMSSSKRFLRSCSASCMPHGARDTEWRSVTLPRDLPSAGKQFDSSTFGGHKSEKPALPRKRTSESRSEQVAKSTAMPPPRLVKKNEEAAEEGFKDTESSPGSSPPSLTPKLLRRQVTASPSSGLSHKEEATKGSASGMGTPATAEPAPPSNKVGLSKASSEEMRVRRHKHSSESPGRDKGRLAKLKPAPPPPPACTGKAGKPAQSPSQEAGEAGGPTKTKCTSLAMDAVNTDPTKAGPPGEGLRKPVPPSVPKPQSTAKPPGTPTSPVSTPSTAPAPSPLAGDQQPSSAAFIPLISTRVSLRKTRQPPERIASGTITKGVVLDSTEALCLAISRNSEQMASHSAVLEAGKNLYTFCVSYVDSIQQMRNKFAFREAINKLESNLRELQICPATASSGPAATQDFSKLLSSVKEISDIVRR

effect of a mutation on the interaction | Variant
decreasing interaction strength | Y614E;Y620E

Variants of: B1
Conditions: with abl1_mouse Abl1, P00520
Remark: another data set of the same source

effect of a mutation on the interaction | Variant
disrupting interaction strength | Y614E;Y620E
decreasing interaction strength | Y614E
decreasing interaction strength | Y620E
